The text below walks through data of patent US6034062.

The target in experiment [1] is BMP-9 receptors expressed on HepG2 cells (ATCC HB8065).
For experiment [2] the target is unchanged. The experiment in a line: 125I-BMP-9 binding to HepG2 cells, high affinity sites.
For experiment [3], the target named is plasma membrane preparation from adult rat lung. As to the kind of experiment: [125I]rhBMP-9 displacement profile on rat lung plasma membranes.
In experiment [4] the target is plasma membrane preparation from adult rat kidney. As to the kind of experiment: [125I]rhBMP-9 displacement profile on rat kidney plasma membranes.
The target of experiment [5] is BMP-9 receptors expressed on HepG2 cells (ATCC HB8065). The experiment in a line: 125I-BMP-9 binding to confluent HepG2 cells, displacement by unlabelled BMP-9, Scatchard analysis.

B1: recombinant human BMP-9 (CHO-derived, mature) (ligand)
chain: TRECSRSCPRTAPQRQVRAVTRRTRMAHVAAGSTLARRKRSAGAGSHCQKTSLRVNFEDIGWDSWIIAPKEYEAYECKGGCFFPLADDVTPTKHAIVQTLVHLKFPTKVG
modifications: 125I-iodinated as tracer; unlabelled BMP-9 used as the displacing ligand
For B1, the 3H-thymidine incorporation in HepG2 cells in experiment [1] worked out at 5 fold. The molecule further registered an ED50 of 3H-thymidine incorporation in HepG2 cells in experiment [1] of 10 ng/mL. Also, the Kd in experiment [2] was determined as 0.27 nM; in experiment [3] it was 0.6 nM; in experiment [4], 0.3 nM; in experiment [5] it was 0.3 nM.

By Kd is commonly meant the concentration at which binding is half-saturated.
